From patent US20090311265A1 come the findings set out here.

The target of test [1] is recombinant HA, subtype H1 (A/New Caledonia/20/99 (H1N1)) (influenza A virus A/New Caledonia/20/99 (H1N1)) (UniProt Q289M7). In words: ELISA, coated HA, IgG 5 µg/ml. (An ELISA detects its analyte on a solid surface through an enzyme-linked reagent.)
For test [2], the target named is recombinant HA, subtype H3 (A/Wyoming/3/2003(H3N2)) (influenza A virus A/Wyoming/3/2003 (H3N2)). In words: ELISA, coated HA, IgG 5 µg/ml.
Test [3] concerns the target recombinant HA, subtype H5 (A/Vietnam/1203/2004 (H5N1)) (influenza A virus A/Vietnam/1203/2004 (H5N1)) (UniProt Q80A26). As to the kind of experiment: ELISA, coated HA, IgG 5 µg/ml.
The target of test [4] is recombinant HA, subtype H7 (A/Netherlands/219/03 (H7N7)) (influenza A virus A/Netherlands/219/03 (H7N7)). In words: ELISA, coated HA, IgG 5 µg/ml.
The target of test [5] is recombinant HA, subtype H9 (A/Hong Kong/1073/99 (H9N2)) (influenza A virus A/Hong Kong/1073/99 (H9N2)). In words: ELISA, coated HA, IgG 5 µg/ml.
The target in test [6] is full-length HA from isolate A/Vietnam/1194/2004 (H5N1TV) on PER.C6 cells (influenza A virus A/Vietnam/1194/2004 (H5N1)) (UniProt Q80A26). As to the kind of experiment: flow cytometry, transfected PER.C6 cells.
Test [7] has the same target. As to the kind of experiment: flow cytometry, transfected PER.C6 cells, separate experiment. On the technique in general: In flow cytometry, cells or beads pass a laser one at a time.

As for CR3014 (antibody), the OD 492 nm in test [1] is 0.08 OD 492 nm; in test [2], 0.07 OD 492 nm; in test [3] it was 0.09 OD 492 nm; in test [4], 0.17 OD 492 nm; in test [5], 0.16 OD 492 nm. For the same substance, the flow cytometry signal at 0.1 µg/ml in test [6] worked out at 6.21; in test [7] it was 10.5. Moreover, the flow cytometry signal at 1 µg/ml worked out at 10 in test [6] and 7.95 in test [7]. Besides, the flow cytometry signal at 10 µg/ml in test [6] turned out to be 13.1; in test [7] it was 9.15.

CR6261 (antibody): in test [4], the OD 492 nm came to 0.31 OD 492 nm.
